Laboratory results taken from PMC9804626 (Molecular Microbiology, 2022).

T1: RodZ‐FLAG (Streptococcus pneumoniae D39)
T1 sequence (Q8DMX7 1-276, looked up): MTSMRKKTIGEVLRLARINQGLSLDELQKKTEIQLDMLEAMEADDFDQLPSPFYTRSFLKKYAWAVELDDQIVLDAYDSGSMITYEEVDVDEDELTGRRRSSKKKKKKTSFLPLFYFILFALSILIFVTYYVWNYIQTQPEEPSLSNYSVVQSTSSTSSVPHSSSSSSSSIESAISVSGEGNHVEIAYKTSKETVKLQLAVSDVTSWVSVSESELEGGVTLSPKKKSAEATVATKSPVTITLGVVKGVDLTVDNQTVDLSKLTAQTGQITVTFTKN

T2: RodZ‐L‐FLAG^3 (Streptococcus pneumoniae D39)
T2 sequence (Q8DMX7 1-276, looked up): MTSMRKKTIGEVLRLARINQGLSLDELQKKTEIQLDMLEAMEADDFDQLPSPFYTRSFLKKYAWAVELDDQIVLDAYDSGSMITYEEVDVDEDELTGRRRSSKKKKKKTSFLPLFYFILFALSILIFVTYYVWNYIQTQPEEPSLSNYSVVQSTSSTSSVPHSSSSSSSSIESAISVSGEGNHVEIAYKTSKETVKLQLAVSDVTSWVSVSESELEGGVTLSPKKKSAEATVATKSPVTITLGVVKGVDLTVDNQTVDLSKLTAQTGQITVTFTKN

T3: MreC‐L‐F3 (Streptococcus pneumoniae D39, UniProt Q8DMY2 1-272)
T3 sequence (looked up): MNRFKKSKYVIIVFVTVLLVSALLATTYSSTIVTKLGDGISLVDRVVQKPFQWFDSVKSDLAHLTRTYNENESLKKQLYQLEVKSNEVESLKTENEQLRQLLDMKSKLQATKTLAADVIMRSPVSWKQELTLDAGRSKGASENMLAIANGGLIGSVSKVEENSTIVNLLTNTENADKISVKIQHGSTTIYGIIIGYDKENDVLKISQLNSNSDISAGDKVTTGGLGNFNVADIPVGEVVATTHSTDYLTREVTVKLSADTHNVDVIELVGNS


Legend:
Assay in all cases: co-IP
[1] = molecular target: MpgA‐F (Streptococcus pneumoniae D39)
[2] = molecular target: T1, RodZ‐FLAG (Streptococcus pneumoniae D39)
[3] = molecular target: MreC‐L‐F3 (Streptococcus pneumoniae D39) (UniProt Q8DMY2)
[4] = molecular target: T2, RodZ‐L‐FLAG^3 (Streptococcus pneumoniae D39)
[5] = molecular target: PBP1a‐F (Streptococcus pneumoniae D39)
[6] = molecular target: KhpB‐L‐F3 (Streptococcus pneumoniae D39) (UniProt Q8CY87)
MreC‐L‐F3 = molecular target: T3, MreC‐L‐F3

Chain of FtsA (A0A0H2ZPT5 whole entry): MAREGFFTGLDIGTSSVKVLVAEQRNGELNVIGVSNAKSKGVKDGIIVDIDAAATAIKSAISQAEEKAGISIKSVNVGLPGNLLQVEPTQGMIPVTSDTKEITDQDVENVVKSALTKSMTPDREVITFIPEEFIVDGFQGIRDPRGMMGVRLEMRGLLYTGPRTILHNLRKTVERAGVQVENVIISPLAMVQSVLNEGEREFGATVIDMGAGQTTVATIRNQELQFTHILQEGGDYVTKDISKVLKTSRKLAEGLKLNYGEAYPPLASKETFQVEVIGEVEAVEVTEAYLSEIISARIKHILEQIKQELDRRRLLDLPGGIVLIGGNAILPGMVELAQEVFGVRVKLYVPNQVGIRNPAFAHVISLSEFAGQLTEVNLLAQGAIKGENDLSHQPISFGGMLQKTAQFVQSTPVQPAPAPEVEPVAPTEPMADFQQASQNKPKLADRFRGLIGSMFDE

Row | Molecule | ratio of prey protein band/background [1] | ratio of prey protein band/background [2] | ratio of prey protein band/background [3] | ratio of prey protein band/background [4] | ratio of prey protein band/background [5] | ratio of prey protein band/background [6] | ratio of prey protein band/background (MreC‐L‐F3)
1 | aPBP1a (natural protein) | 22 | 11 | 41 | 61 | – | – | –
2 | FtsA (from UniProt A0A0H2ZPT5 1-457) (natural protein) | 4.5 | – | – | – | – | – | –
3 | bPBP2b (natural protein) | 13 | 26 | 47 | 63 | 13 | – | –
4 | RodZ‐HA^3 (natural protein) | – | – | – | – | 8.6 | 1.4 | –
5 | FtsW‐L‐GFP (from UniProt A0ACD7PRK7 1-409) (natural protein) | – | – | – | 4.5 | – | – | –
6 | MpgA‐HA (natural protein) | – | – | – | 8.6 | – | – | –
7 | bPBP2x (natural protein) | 12 | 4.8 | 10 | 8.7 | 15 | – | –
8 | StkP (natural protein) | 34 | – | 14 | 23 | 28 | – | –
9 | GpsB (natural protein) | 38 | 24 | 26 | 51 | 16 | – | –
10 | MreC (natural protein) MNRFKKSKYVIIVFVTVLLVSALLATTYSSTIVTKLGDGISLVDRVVQKPFQWFDSVKSDLAHLTRTYNENESLKKQLYQLEVKSNEVESLKTENEQLRQLLDMKSKLQATKTLAADVIMRSPVSWKQELTLDAGRSKGASENMLAIANGGLIGSVSKVEENSTIVNLLTNTENADKISVKIQHGSTTIYGIIIGYDKENDVLKISQLNSNSDISAGDKVTTGGLGNFNVADIPVGEVVATTHSTDYLTREVTVKLSADTHNVDVIELVGNS | 22 | 24 | – | 100 | 19 | – | –
11 | aPBP2a (natural protein, UniProt A0A0H2ZMF9 1-731, looked up) MKLDKLFEKFLSLFKKETSELEDSDSTILRRSRSDRKKLAQVGPIRKFWRRYHLTKIILILGLSAGLLVGIYLFAVAKSTNVNDLQNALKTRTLIFDREEKEAGALSGQKGTYVELTDISKNLQNAVIATEDRSFYKNDGINYGRFFLAIVTAGRSGGGSTITQQLAKNAYLSQDQTVERKAKEFFLALELSKKYSKEQILTMYLNNAYFGNGVWGVEDASKKYFGVSASEVSLDQAATLAGMLKGPELYNPLNSVEDSTNRRDTVLQNMVAAGYIDKNQETEAAEVDMTSQLHDKYEGKISDYRYPSYFDAVVNEAVSKYNLTEEEIVNNGYRIYTELDQNYQANMQIVYENTSLFPRAEDGTFAQSGSVALEPKTGGVRGVVGQVADNDKTGFRNFNYATQSKRSPGSTIKPLVVYTPAVEAGWALNKQLDNHTMQYDSYKVDNYAGIKTSREVPMYQSLAESLNLPAVATVNDLGVDKAFEAGEKFGLNMEKVDRVLGVALGSGVETNPLQMAQAYAAFANEGLMPEAHFISRIENASGQVIASHKNSQKRVIDKSVADKMTSMMLGTFTNGTGISSSPADYVMAGKTGTTEAVFNPEYTSDQWVIGYTPDVVISHWLGFPTTDENHYLAGSTSNGAAHVFRNIANTILPYTPGSTFTVENAYKQNGIAPANTKRQVQTNDNSQTDDNLSDIRGRAQSLVDEASRAISDAKIKEKAQTIWDSIVNLFR | – | – | – | – | – | – | 20
12 | DivIVA (natural protein, UniProt Q8CWP9 1-262, looked up) MPITSLEIKDKTFGTRFRGFDPEEVDEFLDIVVRDYEDLVRANHDKNLRIKSLEERLSYFDEIKDSLSQSVLIAQDTAERVKQAAHERSNNIIHQAEQDAQRLLEEAKYKANEILRQATDNAKKVAVETEELKNKSRVFHQRLKSTIESQLAIVESSDWEDILRPTATYLQTSDEAFKEVVSEVLGEPIPAPIEEEPIDMTRQFSQAEMEELQARIEVADKELSEFEAQIKQEVETPTPVVSPQVEEEPLLIQLAQCMKNQK | 53 | 7.9 | – | 18 | 6.8 | – | 4.3
